These results are taken from PMC12109719, “Synergistic Signal Amplification via Weak Value Amplification Effect and Sandwich Structure for Highly Sensitive and Specific Real-Time Detection of CA125”.

The test system of one data set is human IgE (human). Description: imaging weak measurement, aptamer-antibody sandwich. Conditions: 25 ng/mL; CA125 antibody (CA125 gave 665.83 a.u.); 5'-NH2; PBS+ (10 mM PBS, 5 mM MgCl2) as reference channel; aptamer 2 uM immobilized on polydopamine-coated prism, 2% blocking solution; readout at 55 min; pH and ….
The test system of another data set is human IgG (human). The description is as above. Conditions: 25 ng/mL; CA125 antibody (CA125 gave 665.83 a.u.); 5'-NH2; PBS+ (10 mM PBS, 5 mM MgCl2) as reference channel; aptamer 2 uM immobilized on polydopamine-coated prism, 2% blocking solution; readout at 55 min; pH and ….
For data set [1], the target named is CA125 (carbohydrate antigen 125) (UniProt Q8WXI7 1-14451). Description: imaging weak measurement, aptamer-antibody sandwich; CA125 50 U/mL; CA125 antibody; PBS+ (10 mM PBS, 5 mM MgCl2) as reference channel; aptamer 2 uM immobilized on polydopamine-coated prism, 2% blocking solution; readout at 55 min; pH and temperature not stated. Conditions: protein: commercial.

On to “CTCACTACTATAGGGATAGGGAGACAAGAATAAACGCTCAA [CA125-1 aptamer]”, for which the binding signal with human IgE (human) and with human IgG (human) was below 35 a.u throughout.

B1: CA125-1 aptamer (ssDNA)
DNA: CTCACTACTATAGGGATAGGGAGACAAGAATAAACGCTCAA
modifications: 5'-NH2
B1 registered a binding signal in data set [1] of 735 a.u.

B2: CA125-3 aptamer (ssDNA)
DNA: TATCAATTACTTACCCTAGTGGTGTGATGTCGTATGGATG
modifications: 5'-NH2-C6
The molecule B2 returned a binding signal in data set [1] of 647 a.u.

B3: CA125-2 aptamer (ssDNA)
DNA: TTATCGTACGACAGTCATCCTACAC
modifications: 5'-NH2-C6
For B3, the binding signal in data set [1] is 695 a.u.
